In the DeepSol protein solubility set:

Experiment: soluble on expression in E. coli; label from the status in PepcDB or PDB records

Soluble on expression in E. coli, soluble:
MTEGKRLQQMELPQMKSIWIDEDQEMEKLYGFQVRQRFMNGPSTDSDEDADEDLGIVLVDSKKLALPNKNNIKLPPLPNYMTINPNINSNHKSLTNKKKNFLGMFKKKDLLSRRHGSAKTAKQSSISTPFDFHHISHANGKREDNPLESHEEKHDVESLVKFTSLAPQPRPDSNVSSKYSNVVMNDSSRIVSSSTIATTMDSHHDGNETNNTPNGNKQLDSPTDLEMTLEDLRNYTFPSVLGDSVSEKTNPSSPSVSSFSGKFKPRELSALHTPELGNCFNVDQSLNSPGNRISVDDVLKFYYQCSETSTPRNT, MTENAEKFLWGVATSAYQIEGATQEDGRGPSIWDAFAQRPGAIRDGSTGEPACDHYRRYEEDIALMQSLGVRAYRFSVAWPRILPEGRGRINPKGLAFYDRLVDRLLASGITPFLTLYHWDLPLALEERGGWRSRETAFAFAEYAEAVARALADRVPFFATLNEPWCSAFLGHWTGEHAPGLRNLEAALRAAHHLLLGHGLAVEALRAAGARRVGIVLNFAPAYGEDPEAVDVADRYHNRFFLDPILGKGYPESPFRDPPPVPILSRDLELVARPLDFLGVNYYAPVRVAPGTGTLPVRYLPPEGPATAMGWEVYPEGLYHLLKRLGREVPWPLYVTENGAAYPDLWTGEAVVEDPERVAYLEAHVEAALRAREEGVDLRGYFVWSLMDNFEWAFGYTRRFGLYYVDFPSQRRIPKRSALWYRERIARAQT, MTESTSLDELFKDRYSQNDERYKKMSETGFEPVIVVHPWEPRRNNNYRNRGNFGGGRGGGYQHRDNSNRGGWVPRGGGQRGGYRGGWQDRGGHRGGGGWQDRGGQRQPYRGGDRRRQYND, MTFQETISAYIQERYQITPDFPFKKHPDYLVFRHPRNAKWFALIMPLDAQLLGATENKQLTILTVKLAPELIALLKNQPGYFPAYHMNKEHWLSLSEEIPLSQVFSFIDESYQRSYLEHHHHHH, MTGIYYLYLRQDDPKKATMRKLERFGLAKRVDIKGVGLKLVLTPYADIFLSREDAVLYEKYGLCVIEGSWNKIDSIKSLKFRIERRLPALLAANPVNYGKIGILSSVEATAAALYIIGYWDTAYALLSKFSWGLNFIKLNENPLNEYSTADRSEIKKIEESYFGLEHHHHHH, MTGSTETRQKEVKEPQVDVSDDSDNEAVEQELTEEQRRVAEAAGLGDHIDKQAKQSRSEKKARKLFSKLGLKQVTGVSRVCIRKSKNILFVINKPDVFKSPGSDTYIIFGEAKIEDLTQHAQMSAIENLKPTREAPQLKTVEEDENEDVEEDSTGIEEKDIELVISQANTTRNKAIRALKEADNDIVNAIMSLTM

Soluble on expression in E. coli, not soluble:
MTEGLAVELAGLRSFSIVMPAYNVVTQRGERIFRETLESIAASCRYLQQHFPYTPEGELILISDGSTDRTCDVAMAGWPNAVPLQLVGLPTNVGIAAARNIGVRLAKGEVIFFCDADDLYRPEHLFLALSVLNQPLPEPYAPAYFGAVRTGVYCRDRLHPYWHKSLEQTLVLNLAVRREVHEFIGGFPEDEVFRQFRYGAEDVAYAYWLHQFCHTARLEQRTVEYRRFPNSVFDRQLKKFQAAPGTVADDLDEGDRQQEAQIRQIMATRLQELQAKAAQGVALEHHHHHH, MTEKKFIQDPWAKMTTRNGLAGDEVISALQKSIRRGKEKDACEFAYEMYITSPQFEEKLWRRLLAISVEDIGMGNPIAALMINNLNMMRKEFQYNESDRAMFFFHAIRYLCGSEKDRSSDLLKNIVIKSFAMGYVPEIPDIALDKHTTRGQEMGRGSEHFLHEASKVIPQAKVENDYKEQYEEIIKKYDPNHVVPSTFVFNPWQVLEHHHHHH, MTESFAELFEASQANLAKLKPGSIVTGTVVEVRGDVVVINAGLKSEGIVPIEQFRNDAGEIDVGVGDQVKVALDSIENGFGETVLSREKAKRAMVWDELEEALEKNETITGRISGKVKGGFTVDIKDVRAFLPGSLVDVRPVRDPAYLEGKELEFKLIKLDRKRNNVVVSRRAVVESEHSEEREQLMDKLQEGAILKGVVKNLTDYGAFVDLGGIDGLLHITDMAWKRVRHPSEVVNVGDELDVRVLKFDRERNRVSLGLKQLGEDPWDNIARRYPANSRVFGKVSNVTDYGAFVEIEPGVEGLVHVSEMDWTNKNVNPSKVVQVGDEVEVMVLDVDEERRRISLGMKQVAANPWETFAATHKKNDKVSGQIKSITDFGIFIGLDGGIDGLVHLSDISWNTTGEDVVRNYKKGDTLEAVVLAVDPERERISLGVKQLEQDPFGQYMASNPKGSKVEGVVREVDAKGATIDLADGIEGYVAARDIANERVDDATQHLKVGDKIEAKFVGMDRKGRTLQLSIKAKDDAEMRETLEDYQSASASGGMTQLGALLRAQLNNNKSELEHHHHHH, MTESSLDLGVIGNCSFGALVDRQARVVWSCLPAFDGDPAFCSLLSPKGEGGDFAVELEDFESSEQHYLPNTAVLRTVLRDSKGGEVEVIDFAPRWRNNGRFYRPVSIIRQIRPLAGNPRIVVRARPLADWGGRLEHHHHHH, MTETIKCIGCGVEIQTEDKNEVGYAPASSLEKEQVICQRCFRLKHYNEIQDVSLTDDDFLRILNGIGKSDALVVKIVDIFDFNGSWLPGLHRFVGNNKVLLVGNKADLIPKSVKHDKVKHWMRYSAKQLGLKPEDVFLISAAKGQGIAELADAIEYYRGGKDVYVVGCTNVGKSTFINRMIKEFSDETENVITTSHFPGTTLDLIDIPLDEESSLYDTPGIINHHQMAHYVGKQSLKLITPTKEIKPMVFQLNEEQTLFFSGLARFDYVSGGRRAFTCHFSNRLTIHRTKLEKADELYKNHAGDLLSPPTPEELENMPELVKYEFNIREPKTDVVFSGLGWVTVNEPGAKIVAHVPKGVSVSLRKSLILEHHHHHH, MTETRKKPDPIDVYVGTRIRLRRNILGLTQEKLGEKLGITFQQIQKYEKGTNRIGASRLQAIAEIMDVPVSYFFDKGVGTQQVEGFAESDNDFMDFCSSSEGIQLMRAFTNISDSKVRRKIIDLAKALSEEEDLTNKL, MTETTYENLTRRIDRISAEMREISEENGLRILSLLESQTKSIKDELSRLLWIELPELNESHKIEAVSKSTTGMFFAPGIFEMDAMRKAFFKRQAKHFFENEAEQQAYIEHAEKEYLEATVTLKDILFNSKNGTQKANKSCLIEKFEEAMQ, MTEVLIKVDLNQPVTENEQIHNRWHPDIPMACWVKPGEDFILETYDWTAGAIKNNDDASDVRDVDLSTVHYLSGPVGVHGAEPGDLLVVDLLDIGARADSQWGFNGFFSRQNGGGFLTDHFPMAQKAIWDFKGMMTSSRHIPGVEFAGLIHPGLIGCLPDHKMLAEWNRREQELIDTDPGRVPPLANPPHAKTAHLGKMKGGPERDLAAATGARTVPPREHGGNCDIKDLSRGSKVFFPVYVDGAGLSVGDLHFSQGDGEITFCGAIEMAGWVHMRVELIKGGMAKYGIKNPVFKPSPIVPTYNKYLIFEGISVDESGQQHYLDVNVAYRQACLNAINYMTKFGYSPAQGYALLGSAPVQGHISGIVDIPNACATLWLPTEIFKFDINPNADGPTRFIDGSIDLPIAPDKLEHHHHHH, MTEYGGGEVYLLDLDSVVDGSALRMISSGGLRGRVLIHSALVDYLYSEAKRGRSAGYAGLAELSRLMDAGVGDVEIVVVEDDARVQPRDEGELKSVLRRYALRVGATLVTSDPVQARAARALGVSVLFTGRSRTGRIRIEE, MTFKDLRDFIAQLEQRGALKRIQVPISPVLEMTEVCDRTLRAKGPALLFEKPTGFDMPVLGNLFGTPERVALGMGAEDVGALREIGKLLAQLKEPEPPKGLKDAWAKLPMYRKVLSMAPKVLKDAPCQEVVEEGEDVDLGRLPVQTCWPGDVGPLITWGLTVTRGPNKERQNLGIYRQQVIGRNKVIMRWLSHRGGALDYREWCQKHPGQPYPVAVALGADPATILGAVTPVPDTLSEYAFAGLLRGHRTELVKCRGSDLQVPASAEIVLEGVIHPGEMADEGPYGDHTGYYNEVDRFPVFTVERVTRRQKPIYHSTYTGRPPDEPAILGVALNEVFVPILQKQFPEIVDFYLPPEGCSYRMAVVTMKKQYPGHAKRVMLGVWSFLRQFMYTKFVIVTDDDIDARDWNDVIWAITTRMDPKRDTVMIDNTPIDYLDFASPVSGLGSKMGLDATHKWPGETSREWGRAIVKDEAVTRRIDALWSSLGIDAAALEHHHHHH, MTFKSATGSGQQGGSSGTSAGNPDSLKQDKISKSGDSLSVVDTGQGDDTHYANLPPSITPTSDPNALSFTNKNNAQRVQLFLRGLLDSIPVLVNKSGQDDLEHHHHHH, MTFQVILCYETVRQVAGLESELKANGFGQAQVLPNGTVPNRGSIVDLTNAISKLGVLRATAAGLAGTISRGGAVAIVPAHFGAGGKATEIMKKYNPIVDRPAAKPSAWDDAAPFSSLLRLPVITKSQPFKGHSGTPLIIEQEGAYRSNSGEPLVIKQTGGYRSMSGTPLLLDGGPYKSFSGTPLLIEQKDAYSSFSGTPLLVDSNTLFLTRA, MTGFSISMDLAPKQSRSDRSTHEGTVEQRLKFFMQDVTGRALVMMESATQGQHGIAMDLVQEAFIALHKSYADKATDEWYPLFYTILNNKLQDWRRKEARRSNPFSFFKKVSLDSDEEVTDVVDETTPNPFEFLDQAVTIEEIQAAIAQLPVRQQQAFMLRAWEGFDTQTTAQIMNCSEGSVKTHYHRAIQGLRASLAHLNPSLGGSSDESR, MTGQRDGASLHDALTDKQAAVLRAAFHAGYFEWPRESTAEDLAADMGVTAPTLHNHLRRAQQKLLEHHHHHH, MTGRTGGNGSTQAQPERVMLVGVMLDKDGTGSSAARLNGFQTALAEAVELVKAAGGDSVRVETAKRDRPHTALFVGTGKAAELSEAVAADGIDLVVFNHELTPTQERNLEKELKCRVLDRVGLILAIFARRARTQEGRLQVELAQLSHLAGRLIRGYGHLQSQRGGIGMKGPGETKLETDRRLIAHRINALKKQLANLKKQRALRRKSRESGTIKTFALVGYTNVGKSSLFNRLTKSGIYAKDQLFATLDTTARRLYISPECSIILTDTVGFVSDLPHKLISAFSATLEETAQADVLLHVVDAAAPNSGQQIEDVENVLQEIHAGDIPCIKVYNKTDLLPSEEQNTGIWRDAAGKIAAVRISVAENTGIDALREAIAESCAAAPLEHHHHHH, MTGSTAGKVLVVGALGVVGRAALEHFGQRPGLARVGLSRRAPDFAPEATWISADLRDAQATRAALAAHGDATHVVYAALNEQPDLLKGWRDSGNVDLNTRMLRNTLDALREAPLRHVTLLQGTKAYGVHTGRPMPVPARETDAVRDHANFYFDQQDLLAERAAAQGFAWTIFRPQIVLGVALGSAMNPVATLGAYAALSREAGQPLRYPGHPHLLTECTDARLIARAIAWAWDEPRAHGEAFNIANGDVVLWQPVFERLAALFGMPLGEPVDTRMREAMPEQAERWRAIAERERLAVPQLRDLIGLSWQYADATWAARHPLPVPPLVSTIKLRQAGFGDCIDTQECIVEHLREMQRLRYLPRLEHHHHHH, MTGVYADAVLVSVTVGDTVTLHTAGVKNLQPADVKWYFNDIRIAQLDGDLRFNCTDIQCNDRTEIFIDRLRLDRKTGALTIVNITNTHSGVYQLVVIGGGGTIFNVTVHDDPATHYNQVKKNQGESVTFNPGVRRDLIVVLKCLLNNTLIAEISVNQSQICADVQCKERFTDRLKLDNESASLTITNTNITDSGNYTSVILISSDRRFSITREKRFSLTVTSLSSSQPSGGAIAGIVVMLLLLL
